Measured values published in article PMC10138348, “Continuous Fluorescent Sirtuin Activity Assay Based on Fatty Acylated Lysines” (International Journal of Molecular Sciences, 2023).

Experiments:
[1] = target: F4, TNFα-derived peptide with a myristoylated lysine and fluorescein-labelled cysteine in the +2 position; test: fluorescence polarisation; BSA in serial dilution from 752 µM, labelled peptide fixed; 384-well plate, 20 mM Tris-HCl pH 7.8, 150 mM NaCl, 5 mM MgCl2; three independent replicates
[2] = target: F6, deacylated fluorescein-labelled peptide product of F4 (fluorophore in +2 position); test: as above
[3] = target: F4, TNFα-derived peptide with a myristoylated lysine and fluorescein-labelled cysteine in the +2 position; test: other fluorescence titration; fluorescence spectra of the labelled peptide with increasing concentrations of BSA; excitation 490 nm, relative intensity at 517 nm against BSA concentration; n = 1
[4] = target: F6, deacylated fluorescein-labelled peptide product of F4 (fluorophore in +2 position); test: as above

bovine serum albumin, sequence (P02769 25-607): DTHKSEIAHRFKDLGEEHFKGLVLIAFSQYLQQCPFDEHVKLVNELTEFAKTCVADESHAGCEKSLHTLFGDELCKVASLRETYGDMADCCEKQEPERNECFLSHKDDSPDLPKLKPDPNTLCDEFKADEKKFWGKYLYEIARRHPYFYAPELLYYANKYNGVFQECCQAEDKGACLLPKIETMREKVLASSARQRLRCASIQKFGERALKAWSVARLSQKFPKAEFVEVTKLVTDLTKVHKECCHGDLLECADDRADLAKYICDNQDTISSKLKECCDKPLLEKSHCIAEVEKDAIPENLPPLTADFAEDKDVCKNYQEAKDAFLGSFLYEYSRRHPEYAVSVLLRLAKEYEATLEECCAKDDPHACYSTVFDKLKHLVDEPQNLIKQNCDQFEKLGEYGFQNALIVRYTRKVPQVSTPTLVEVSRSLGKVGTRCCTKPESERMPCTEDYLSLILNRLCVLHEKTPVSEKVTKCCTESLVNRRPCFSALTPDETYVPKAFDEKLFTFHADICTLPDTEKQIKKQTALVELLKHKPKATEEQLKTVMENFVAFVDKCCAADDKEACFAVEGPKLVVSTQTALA

Q: Which results are given for “bovine serum albumin (from UniProt P02769 25-607) (natural protein)”?
A: Kd [1]: 1600 nM; fold KD against the F4/BSA complex [2]: > 100 fold; Kd [3]: 1200 nM; fold KD against the F4/BSA complex [4]: > 100 fold
